The text below walks through data of IntAct's records for PubMed 21525010.

B1: Invasin IpaA (Shigella flexneri), P18010 (parent)
chain: MHNVNNTQAPTFLYKATSPSSTEYSELKSKISDIHSSQTSLKTPASVSEKENFATSFNQKCLDFLFSSSGKEDVLRSIYSNSMNAYAKSEILEFSNVLYSLVHQNGLNFENEKGLQKIVAQYSELIIKDKLSQDSAFGPWSAKNKKLHQLRQNIEHRLALLAQQHTSGEALSLGQKLLNTEVSSFIKNNILAELKLSNETVSSLKLDDLVDAQAKLAFDSLRNQRKNTIDSKGFGIGKLSRDLNTVAVFPELLRKVLNDILEDIKDSHPIQDGLPTPPEDMPDGGPTPGANEKTSQPVIHYHINNDNRTYDNRVFDNRVYDNSYHENPENDAQSPTSQTNDLLSRNGNSLLNPQRALVQKVTSVLPHSISDTVQTFANNSALEKVFNHTPDNSDGIGSDLLTTSSQERSANNSLSRGHRPLNIQNSSTTPPLHPEGVTSSNDNSSDTTKSSASLSHRVASQINKFNSNTDSKVLQTDFLSRNGDTYLTRETIFEASKKVTNSLSNLISLIGTKSGTQERELQEKSKDITKSTTEHRINNKLKVTDANIRNYVTETNADTIDKNHAIYEKAKEVSSALSKVLSKIDDTSAELLTDDISDLKNNNDITAENNNIYKAAKDVTTSLSKVLKNINKD

In one assay the parent is B1. Particulars: with vinc_human VCL.
As to V499E;L503Q, the “effect of a mutation on the interaction” value was “disrupting interaction”.

A further assay covers variants of B1. The following applies: with vinc_human VCL. The source holds these as a separate data set.
With A495K, the “effect of a mutation on the interaction” value is listed as “decreasing interaction”.
